In patent US12379386B2, “Antibodies to 25-hydroxyvitamin D2 and D3 for detecting total 25-hydroxyvitamin D” (Siemens Healthcare Diagnostics Inc., priority 2011, dated 2025):

What was measured:
Type in all cases: binding
[1] = system: Vit D C22-Diaminobutane-Suberoyl-KLH; assay: 10H9 hybridoma supernatant ELISA on coated plate, no competing antigen; conditions: Ag 0, coat 50 ng/mL
Description: (§1) Following isolation of hybridoma clones, studies were conducted to determine the relative ability of the antibodies to bind to both 25-hydroxyvitamin D2 and 25-hydroxyvitamin D3. To assess this, antibody displacement assays were conducted to determine the degree to which binding between vitamin D-C22 BSA and a reactive antibody raised against the antigen (10H9) could be disrupted by the presence of 25-hydroxyvitamin D2 or 25-hydroxyvitamin D3. Cell culture supernatant from the 10H9 hybridoma cell lines producing antibodies reactive to vitamin D-C22 BSA were coincubated in the presence or absence of 25-hydroxyvitamin D2 or 25-hydroxyvitamin D3 on microtiter plates coated with vitamin D-C22 KLH for 1 hour. After washing the plates, goat anti-mouse IgG-HRPO was added and incubated for 30 minutes. Plates were washed and then incubated with tetramethyl benzidine (TMB). The generated color was stopped using 1N sulfuric acid and the optical density was measured at 450 nm.

[2] = Antibody displacement assay, 10H9 supernatant, competitor 25-hydroxyvitamin D2; conditions: for optical density at 450 nm: 25 OH-D2 0.4 μg/mL, coat Vit D C22-Diaminobutane-Suberoyl-KLH 50 ng/mL
Description: as §1

[3] = Antibody displacement assay, 10H9 supernatant, competitor 25-hydroxyvitamin D3; conditions: for optical density at 450 nm: 25 OH-D3 0.4 μg/mL, coat Vit D C22-Diaminobutane-Suberoyl-KLH 50 ng/mL
Description: as §1

[4] = Displacement assay with purified coated 10H9 and alkaline phosphatase tracer, competitor 25-hydroxyvitamin D2; conditions: for optical density at 405 nm: MAb coat 1 ug/mL
Description: (§2) Next, displacement experiments were conducted using purified antibody, rather than cell supernatant. In this experiment, the antibody of interest was coated directly on the microtiter plate via a two-hour incubation. Coated plates were washed and then coincubated with either 25-hydroxyvitamin D2 or 25-hydroxyvitamin D3 in the presence of alkaline phosphatase-conjugated vitamin D-C22 BSA. After 30 minutes the plates were washed and color was developed by adding the substrate p-nitrophenyl phosphate (PNPP). Optical density colored solution was measured at 405 nm.

[5] = Displacement assay with purified coated 10H9 and alkaline phosphatase tracer, competitor 25-hydroxyvitamin D3; conditions: for optical density at 405 nm: MAb coat 1 ug/mL
Description: as §2

B1: 10H9: murine monoclonal antibody from the 10H9 hybridoma, raised against vitamin D-C22 BSA; binds 25-hydroxyvitamin D2 and D3 (antibody, V domains shown)
VH: VQLLESGPELVKPGASMKISCKASGYSFTDYTMNWVKQSHGKNLEWIGLINPYNGFTIYNQKFKGKATLTVDKSSSTAYMELLSLTSEDSAVYYFIRAHYDGRVFWGQGTTLTVSS
VL: CELVMTQSPLSLPVSLGDQASVSCRSSQSLVHSNGNTYLHRYLQKPGQSPKLLIYQVSNRFSGVPDRFSGSGSGTDFTLKITRVEAEDLGVYFCSQITHFPPTFGGGTKLEIKR
modifications: Description of Unknown: 10H9 monoclonal antibody heavy chain variable region polypeptide; Description of Unknown: 10H9 monoclonal antibody light chain variable region polypeptide
[1]; supernatant dilution 1:4
  optical density at 450 nm: 1.997
[1]; supernatant dilution 1:16
  optical density at 450 nm: 1.244
[1]; supernatant dilution 1:64
  optical density at 450 nm: 0.672
[1]; supernatant dilution 1:256
  optical density at 450 nm: 0.313
[2]; 10H9 supernatant, 25-hydroxyvitamin D2
  disruption of antibody binding by coincubation: disrupted in a concentration-dependent manner
[2]; supernatant dilution 1:4
  optical density at 450 nm: 0.323
[2]; supernatant dilution 1:16
  optical density at 450 nm: 0.154
[2]; supernatant dilution 1:64
  optical density at 450 nm: 0.097
[2]; supernatant dilution 1:256
  optical density at 450 nm: 0.086
[3]; 10H9 supernatant, 25-hydroxyvitamin D3
  disruption of antibody binding by coincubation: disrupted in a concentration-dependent manner
[3]; supernatant dilution 1:4
  optical density at 450 nm: 0.384
[3]; supernatant dilution 1:16
  optical density at 450 nm: 0.176
[3]; supernatant dilution 1:64
  optical density at 450 nm: 0.105
[3]; supernatant dilution 1:256
  optical density at 450 nm: 0.090
[4]; 25OH-VIT D2 0 ng/ml
  optical density at 405 nm: 1.277
[4]; 25OH-VIT D2 5 ng/ml
  optical density at 405 nm: 1.189
[4]; 25OH-VIT D2 10 ng/ml
  optical density at 405 nm: 1.007
[4]; 25OH-VIT D2 25 ng/ml
  optical density at 405 nm: 0.771
[4]; 25OH-VIT D2 100 ng/ml
  optical density at 405 nm: 0.106
[4]; 25OH-VIT D2 200 ng/ml
  optical density at 405 nm: 0.080
[4]; 25OH-VIT D2 400 ng/ml
  optical density at 405 nm: 0.069
[4]; 25OH-VIT D2 1000 ng/ml
  optical density at 405 nm: 0.063
[4]; purified antibody, 25-hydroxyvitamin D2
  disruption of 10H9 binding to vitamin D-C22 BSA by coincubation: disrupted in a concentration-dependent manner
[5]; 25OH-VIT D3 0 ng/ml
  optical density at 405 nm: 1.213
[5]; 25OH-VIT D3 5 ng/ml
  optical density at 405 nm: 1.083
[5]; 25OH-VIT D3 10 ng/ml
  optical density at 405 nm: 0.800
[5]; 25OH-VIT D3 25 ng/ml
  optical density at 405 nm: 0.519
[5]; 25OH-VIT D3 100 ng/ml
  optical density at 405 nm: 0.115
[5]; 25OH-VIT D3 200 ng/ml
  optical density at 405 nm: 0.089
[5]; 25OH-VIT D3 400 ng/ml
  optical density at 405 nm: 0.077
[5]; 25OH-VIT D3 1000 ng/ml
  optical density at 405 nm: 0.069
[5]; purified antibody, 25-hydroxyvitamin D3
  disruption of 10H9 binding to vitamin D-C22 BSA by coincubation: disrupted in a concentration-dependent manner
